Consider one molecule from patent US20030186334A1, “KTS-disintegrins” (Temple University - Of the Commonwealth System of Higher …, priority 2001, published 2003).

The assay addresses human α1β1 integrin (human), P56199. Kind of assay: inhibition of adhesion of α1K562 cells to immobilised collagen IV.

Chain of human α1β1 integrin (human), P56199 (P56199 29-1179, chain 1 of 2): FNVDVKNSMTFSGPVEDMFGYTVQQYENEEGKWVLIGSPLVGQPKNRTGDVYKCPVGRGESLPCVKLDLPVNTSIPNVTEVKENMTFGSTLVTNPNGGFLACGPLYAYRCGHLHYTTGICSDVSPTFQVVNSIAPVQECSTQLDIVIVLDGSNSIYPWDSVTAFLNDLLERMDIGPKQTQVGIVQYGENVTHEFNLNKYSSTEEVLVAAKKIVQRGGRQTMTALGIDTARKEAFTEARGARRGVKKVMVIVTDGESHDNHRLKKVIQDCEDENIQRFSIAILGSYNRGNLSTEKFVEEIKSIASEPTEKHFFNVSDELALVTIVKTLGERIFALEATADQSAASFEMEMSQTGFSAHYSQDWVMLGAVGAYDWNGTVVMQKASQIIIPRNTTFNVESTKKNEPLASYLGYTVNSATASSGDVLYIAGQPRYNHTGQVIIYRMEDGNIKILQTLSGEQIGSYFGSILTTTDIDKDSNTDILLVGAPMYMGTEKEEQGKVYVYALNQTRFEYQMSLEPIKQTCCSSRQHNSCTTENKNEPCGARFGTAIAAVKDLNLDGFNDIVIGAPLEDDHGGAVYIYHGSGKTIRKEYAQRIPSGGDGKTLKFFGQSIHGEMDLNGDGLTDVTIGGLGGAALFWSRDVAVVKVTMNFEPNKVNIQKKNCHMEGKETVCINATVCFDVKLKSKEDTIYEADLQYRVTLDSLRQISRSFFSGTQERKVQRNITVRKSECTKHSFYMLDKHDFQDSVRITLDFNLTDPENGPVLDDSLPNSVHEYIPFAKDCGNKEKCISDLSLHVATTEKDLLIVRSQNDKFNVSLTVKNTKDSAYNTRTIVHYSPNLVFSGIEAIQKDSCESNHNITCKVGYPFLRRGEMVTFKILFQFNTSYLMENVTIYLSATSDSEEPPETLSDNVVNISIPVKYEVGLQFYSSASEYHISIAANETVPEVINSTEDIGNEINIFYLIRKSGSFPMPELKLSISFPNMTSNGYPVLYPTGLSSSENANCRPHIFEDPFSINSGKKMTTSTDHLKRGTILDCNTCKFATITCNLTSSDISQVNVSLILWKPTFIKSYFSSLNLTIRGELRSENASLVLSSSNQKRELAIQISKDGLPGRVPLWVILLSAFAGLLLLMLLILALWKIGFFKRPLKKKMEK
Chain of human α1β1 integrin (human), P56199 (P05556 21-798, chain 2 of 2, further chain): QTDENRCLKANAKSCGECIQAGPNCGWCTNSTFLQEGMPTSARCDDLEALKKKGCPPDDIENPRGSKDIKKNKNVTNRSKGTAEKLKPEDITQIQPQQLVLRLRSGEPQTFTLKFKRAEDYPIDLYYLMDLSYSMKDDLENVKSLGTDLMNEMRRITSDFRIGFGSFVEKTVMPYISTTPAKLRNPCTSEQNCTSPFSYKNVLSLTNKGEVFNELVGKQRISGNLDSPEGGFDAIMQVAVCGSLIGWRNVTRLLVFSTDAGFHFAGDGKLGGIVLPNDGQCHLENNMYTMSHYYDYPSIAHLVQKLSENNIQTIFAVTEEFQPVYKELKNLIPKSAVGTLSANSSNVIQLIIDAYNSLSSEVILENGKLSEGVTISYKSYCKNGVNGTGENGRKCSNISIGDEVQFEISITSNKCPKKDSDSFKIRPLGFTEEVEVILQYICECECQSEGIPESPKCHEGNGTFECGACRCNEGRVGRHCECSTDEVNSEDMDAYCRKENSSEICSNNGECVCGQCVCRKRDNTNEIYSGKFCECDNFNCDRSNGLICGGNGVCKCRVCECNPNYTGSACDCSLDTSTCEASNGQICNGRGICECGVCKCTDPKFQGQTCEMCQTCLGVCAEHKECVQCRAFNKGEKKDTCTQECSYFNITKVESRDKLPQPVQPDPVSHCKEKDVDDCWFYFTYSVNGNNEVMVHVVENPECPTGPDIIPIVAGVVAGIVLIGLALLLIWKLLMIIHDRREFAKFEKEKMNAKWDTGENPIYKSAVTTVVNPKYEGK

B1: synthetic peptide TSLTS (SEQ ID NO: 6) (peptide)
peptide: TSLTS
modifications: not checked
B1 returned an IC50 of 3.5 mM.
